Measured values as given in US20260117202A1.
“And” between values parts separate entries of the source, which are not always exact repeats. Equal values may be shown once.

Experiments:
[1] = target: FHS-5 (RSV strain A2) (UniProt P03420); assay: sandwich ELISA, AM14 coated, supernatant 1:10
[2] = target: FHS-68 (RSV strain A2) (UniProt P03420); assay: sandwich ELISA, AM14 coated, supernatant 1:10
[3] = target: FHM-5 (RSV strain A2) (UniProt P03420); assay: sandwich ELISA, AM14 coated, supernatant 1:10
[4] = target: FHS-4 (RSV strain A2) (UniProt P03420); assay: sandwich ELISA, AM14 coated, supernatant 1:10
[5] = target: FHS-54 (RSV strain A2) (UniProt P03420); assay: sandwich ELISA, AM14 coated, supernatant 1:10
[6] = target: FHS-62 (RSV strain A2) (UniProt P03420); assay: sandwich ELISA, AM14 coated, supernatant 1:10
[7] = target: FHS-98 (RSV strain A2) (UniProt P03420); assay: sandwich ELISA, AM14 coated, supernatant 1:10
[8] = target: FHS-24 (RSV strain A2) (UniProt P03420); assay: sandwich ELISA, AM14 coated, supernatant 1:10
[9] = target: FHS-23 (RSV strain A2) (UniProt P03420); assay: sandwich ELISA, AM14 coated, supernatant 1:10
[10] = target: FHS-16 (RSV strain A2) (UniProt P03420); assay: sandwich ELISA, AM14 coated, supernatant 1:10
[11] = target: FHS-48 (RSV strain A2) (UniProt P03420); assay: sandwich ELISA, AM14 coated, supernatant 1:10
[12] = target: FHS-28 (RSV strain A2) (UniProt P03420); assay: sandwich ELISA, AM14 coated, supernatant 1:10
[13] = target: FHS-50 (RSV strain A2) (UniProt P03420); assay: sandwich ELISA, AM14 coated, supernatant 1:10
[14] = target: FHS-88 (RSV strain A2) (UniProt P03420); assay: sandwich ELISA, AM14 coated, supernatant 1:10
[15] = target: FHS-37 (RSV strain A2) (UniProt P03420); assay: sandwich ELISA, AM14 coated, supernatant 1:10
[16] = target: FHS-22 (RSV strain A2) (UniProt P03420); assay: sandwich ELISA, AM14 coated, supernatant 1:10
[17] = target: FHM-19 (RSV strain A2) (UniProt P03420); assay: sandwich ELISA, AM14 coated, supernatant 1:10
[18] = target: FHS-73 (RSV strain A2) (UniProt P03420); assay: sandwich ELISA, AM14 coated, supernatant 1:10
[19] = target: FHS-14 (RSV strain A2) (UniProt P03420); assay: sandwich ELISA, AM14 coated, supernatant 1:10
[20] = target: FHS-66 (RSV strain A2) (UniProt P03420); assay: sandwich ELISA, AM14 coated, supernatant 1:10
[21] = target: FHM-16 (RSV strain A2) (UniProt P03420); assay: sandwich ELISA, AM14 coated, supernatant 1:10
[22] = target: FHM-15 (RSV strain A2) (UniProt P03420); assay: sandwich ELISA, AM14 coated, supernatant 1:10
[23] = target: FHM-18 (RSV strain A2) (UniProt P03420); assay: sandwich ELISA, AM14 coated, supernatant 1:10
[24] = target: FHS-90 (RSV strain A2) (UniProt P03420); assay: sandwich ELISA, AM14 coated, supernatant 1:10
[25] = target: FHM-11 (RSV strain A2) (UniProt P03420); assay: sandwich ELISA, AM14 coated, supernatant 1:10
[26] = target: FHS-29 (RSV strain A2) (UniProt P03420); assay: sandwich ELISA, AM14 coated, supernatant 1:10
[27] = target: FHS-64 (RSV strain A2) (UniProt P03420); assay: sandwich ELISA, AM14 coated, supernatant 1:10
[28] = target: FHS-79 (RSV strain A2) (UniProt P03420); assay: sandwich ELISA, AM14 coated, supernatant 1:10
[29] = target: FHS-33 (RSV strain A2) (UniProt P03420); assay: sandwich ELISA, AM14 coated, supernatant 1:10
[30] = target: FHS-72 (RSV strain A2) (UniProt P03420); assay: sandwich ELISA, AM14 coated, supernatant 1:10
[31] = target: FHS-67 (RSV strain A2) (UniProt P03420); assay: sandwich ELISA, AM14 coated, supernatant 1:10
[32] = target: FHM-17 (RSV strain A2) (UniProt P03420); assay: sandwich ELISA, AM14 coated, supernatant 1:10
[33] = target: FHS-49 (RSV strain A2) (UniProt P03420); assay: sandwich ELISA, AM14 coated, supernatant 1:10
[34] = target: FHCS-2 (RSV strain A2) (UniProt P03420); assay: ELISA; F coated 1250 ng/ml; stored -80° C.
[35] = target: FHCS-1 (RSV strain A2) (UniProt P03420); assay: ELISA; F coated 312.5 ng/ml; stored -80° C.
[36] = target: FHCS-2 (RSV strain A2) (UniProt P03420); assay: ELISA; F coated 312.5 ng/ml; stored -80° C.
[37] = target: FHCS-4 (RSV strain A2) (UniProt P03420); assay: ELISA; F coated 312.5 ng/ml; stored -80° C.
[38] = target: FHCS-1 (RSV strain A2) (UniProt P03420); assay: ELISA; F coated 625 ng/ml; stored -80° C.
[39] = target: FHCS-2 (RSV strain A2) (UniProt P03420); assay: ELISA; F coated 625 ng/ml; stored -80° C.
[40] = target: FHCS-4 (RSV strain A2) (UniProt P03420); assay: ELISA; F coated 625 ng/ml; stored -80° C.

AM14 monoclonal antibody
OD value [1]: 2.24 OD | OD value [2]: 1.99 OD | OD value [3]: 1.96 OD | OD value [4]: 2.26 OD | OD value [5]: 0.012 OD | OD value [6]: 0.01 OD | OD value [7]: 0.007 OD | OD value [8]: 0.01 OD | OD value [9]: 0.008 OD | OD value [10]: 0.009 OD | OD value [11]: 2.42 OD | OD value [12]: 0.008 OD | OD value [13]: 2.3 OD | OD value [14]: 2.3 OD | OD value [15]: 0.007 OD | OD value [16]: 0.01 OD | OD value [17]: 0.367 OD | OD value [18]: 0.016 OD | OD value [19]: 2.61 OD | OD value [20]: 1.75 OD | OD value [21]: 0.26 OD | OD value [22]: 1.5 OD | OD value [23]: 1.8 OD | OD value [24]: 0.007 OD | OD value [25]: 0.006 OD | OD value [26]: 0.007 OD | OD value [27]: 0.008 OD | OD value [28]: 0.008 OD | OD value [29]: 0.005 OD | OD value [30]: 0.007 OD | OD value [31]: 1.86 OD | OD value [32]: 0.006 OD | OD value [33]: 1.96 OD | OD value [34]: 0.017 OD and 0.02 OD

Synagis® (antibody)
OD value [35]: 0.065 OD and 0.053 OD | OD value [36]: 0.109 OD and 0.097 OD | OD value [37]: 0.032 OD and 0.028 OD | OD value [38]: 0.161 OD and 0.154 OD | OD value [39]: 0.409 OD and 0.307 OD | OD value [40]: 0.11 OD
